# Residue numbers refer to the chain shown, from its start.
# T1: human IgA (hIgA) (human)
# T1 chain: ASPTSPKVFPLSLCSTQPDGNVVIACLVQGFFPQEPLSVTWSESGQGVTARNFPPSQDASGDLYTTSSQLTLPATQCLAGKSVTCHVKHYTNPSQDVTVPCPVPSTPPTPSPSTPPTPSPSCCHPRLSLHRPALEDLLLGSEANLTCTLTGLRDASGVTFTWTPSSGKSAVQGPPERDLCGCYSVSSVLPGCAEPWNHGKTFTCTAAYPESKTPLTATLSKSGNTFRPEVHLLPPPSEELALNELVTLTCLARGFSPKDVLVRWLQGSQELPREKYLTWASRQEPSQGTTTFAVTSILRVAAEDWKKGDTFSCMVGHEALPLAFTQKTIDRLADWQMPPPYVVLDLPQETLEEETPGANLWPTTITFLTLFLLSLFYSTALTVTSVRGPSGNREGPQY
# T2: human IL-6 receptor (hIL-6R) (human, UniProt P08887 20-357, limits assumed)
# T2 sequence: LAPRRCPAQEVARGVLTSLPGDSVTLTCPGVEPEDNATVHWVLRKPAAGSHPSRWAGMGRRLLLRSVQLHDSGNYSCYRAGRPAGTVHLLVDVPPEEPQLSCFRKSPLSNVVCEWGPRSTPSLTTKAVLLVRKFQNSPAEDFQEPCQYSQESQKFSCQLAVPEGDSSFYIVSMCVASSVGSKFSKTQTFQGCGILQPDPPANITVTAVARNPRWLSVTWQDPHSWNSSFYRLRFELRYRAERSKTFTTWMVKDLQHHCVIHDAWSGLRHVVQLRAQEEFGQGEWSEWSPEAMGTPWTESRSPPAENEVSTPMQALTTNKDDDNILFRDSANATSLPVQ
# B1: IAS2T001H-F760mnN17/IAS2T001L-KT0 (antibody, human IgG1, kappa, N297A, V domains shown)
# VH: QVQLVQSGAEVKKPGASVKVSCKVSDIQDEQYAFGWVRQPPGKGLEWIGIIGATGHVWYPQWVKGRFTISKDNSKNQVVLTMTNMDPVDTATYYCARGHKQHFTNAFDPWGQGTLVTVSS
# VL: DIQLTQSPSSLSASVGDRVTITCQSSQSVYKNNYLSWYQQKPGQPPKLLIYDASTLASGVPSRFSGSGSGTDFTLTINSLEAEDAATYYCHGAYLYLGVDNAFGGGTEVVVKR
# notes: From the MTA-concentrated S02 library; Target antigen is hIgA
# B2: 6RS2T007H-F760mnN17/6RS2T007L-KT0 (antibody, human IgG1, kappa, N297A, V domains shown)
# VH: QVQLVQSGAEVKKPGASVKVSCKVSNIVLMQHTYGWVRQPPGKGLEWIGIIGGDGHAWYPRWVKGRFTISKDNSKNQVVLTMTNMDPVDTATYYCARGGKDGFTNAWDPWGQGTLVTVSS
# VL: DIQLTQSPSSLSASVGDRVTITCQSSQSVFNNNGLSWYQQKPGQPPKLLIYDASTLASGVPSRFSGSGSGTDFTLTINSLEAEDAATYYCHGSQATQIWWDNAFGGGTEVVVKR
# notes: From the MTA-concentrated S02 library (humanized SMB0002 template); also called MTA-dependent anti-hIL-6R antibody
# B3: 6LS2T001H-F760mnN17/6LS2T001L-KT0 (antibody, human IgG1, kappa, N297A, V domains shown)
# VH: QVQLVQSGAEVKKPGASVKVSCKVSDIDAMQYTYGWVRQPPGKGLEWIGIIGEGGEVWYPYWVKGRFTISKDNSKNQVVLTMTNMDPVDTATYYCARGYHEGFVNAWDPWGQGTLVTVSS
# VL: B2 VL with Q3K, F30L, N31W, G34Y, A95F, T96E, I98W, W99V, W100F
# notes: From the MTA-concentrated S02 library; Target antigen is hIL-6
# Experiments:
# human IgA (hIgA) = molecular target: T1, human IgA (hIgA); assay: SPR (Biacore T200), antibody captured on ProA/G on CM4 chip, hIgA as analyte, single cycle kinetics, 25 C, in the presence of 100 µM MTA; 100 µM MTA in the antigen buffer
# [1] = molecular target: T2, human IL-6 receptor (hIL-6R); assay: SPR (Biacore T200), antibody captured on ProA/G on CM4 chip, hIL-6R as analyte, single cycle kinetics, 25 C, in the presence of 100 µM MTA; 100 µM MTA in the antigen buffer
# Description: (§1) The effects of MTA and adenosine on the antigen-antibody reaction between the antibodies purified and produced in Example (4-5) and the target antigens were evaluated using Biacore T200 (GE Healthcare). 20 mM ACES, 150 mM NaCl, 0.05% (w/v) Tween20, pH 7.4 was used as the running buffer, and the measurement was performed at 25° C. Changes in the amount of binding between antigens and antibodies were observed by immobilizing ProA/G on the sensor chip CM4 by amine coupling, immobilizing the antibody on it, and then interacting with various antigens as analytes. The running buffer and a buffer prepared by adding either MTA or adenosine to the running buffer at a final concentration of 100 μM were used to dilute the antigens. In addition, the antigens were prepared in concentration series of several steps, and the dissociation constant KD of each clone was calculated by single cycle kinetics analysis from the sensorgram for each antigen concentration. Biacore T200 Evaluation Software (GE Healthcare) was used to calculate the parameters.
# human IL-6 (hIL-6) = human IL-6 (hIL-6) (human); assay: SPR (Biacore T200), antibody captured on ProA/G on CM4 chip, hIL-6 as analyte, single cycle kinetics, 25 C, in the presence of 100 µM MTA; 100 µM MTA in the antigen buffer
# Description: as §1
# Sequence of human IL-6 (hIL-6) (human) (P05231 30-212): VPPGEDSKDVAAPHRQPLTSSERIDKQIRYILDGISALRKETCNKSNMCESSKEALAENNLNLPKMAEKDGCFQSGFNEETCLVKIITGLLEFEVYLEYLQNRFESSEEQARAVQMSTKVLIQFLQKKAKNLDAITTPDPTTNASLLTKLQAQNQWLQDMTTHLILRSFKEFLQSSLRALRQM
binder,measurement,setting,value
B1,Kd,human IgA (hIgA),689 nM
B2,Kd,[1],1010 nM
B3,Kd,human IL-6 (hIL-6),126 nM
